Test results: paper PMC10397247
One block for each binder: values may come before it.

What was measured:
Experiment in all cases: two-hybrid library CCmax;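 further: natural log of median RNA to DNA barcode read ratio; higher means stronger binding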
4H2698-AA = molecular target: T1, 4H2698-AA; details: mean of both orientations
T1 chain: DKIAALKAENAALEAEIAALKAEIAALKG

4H536-AA = molecular target: T2, 4H536-AA; details: mean of both orientations
T2 chain: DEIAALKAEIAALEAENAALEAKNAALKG

4H2162-AA = molecular target: T3, 4H2162-AA; details: mean of both orientations
T3 chain: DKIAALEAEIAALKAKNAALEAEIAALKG

4H310-AA = molecular target: T4, 4H310-AA; details: mean of both orientations
T4 chain: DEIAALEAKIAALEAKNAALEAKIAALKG

4H629-AA = molecular target: T5, 4H629-AA; details: mean of both orientations
T5 chain: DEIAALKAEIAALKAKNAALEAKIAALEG

4H3016-AA = molecular target: T6, 4H3016-AA; details: mean of both orientations
T6 chain: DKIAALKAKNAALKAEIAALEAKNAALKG

4H909-AA = molecular target: T7, 4H909-AA; details: mean of both orientations
T7 chain: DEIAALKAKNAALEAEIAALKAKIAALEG

4H3865-AA = molecular target: T8, 4H3865-AA; details: mean of both orientations
T8 chain: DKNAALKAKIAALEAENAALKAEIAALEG

4H930-AA = molecular target: T9, 4H930-AA; details: mean of both orientations
T9 chain: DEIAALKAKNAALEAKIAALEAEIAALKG

4H3395-AA = molecular target: T10, 4H3395-AA; details: mean of both orientations
T10 chain: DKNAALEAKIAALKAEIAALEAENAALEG

4H3165-AA = molecular target: T11, 4H3165-AA; details: mean of both orientations
T11 chain: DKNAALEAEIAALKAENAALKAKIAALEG

4H745-AA = molecular target: T12, 4H745-AA; details: mean of both orientations
T12 chain: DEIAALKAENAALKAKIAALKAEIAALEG

4H2253-AA = molecular target: T13, 4H2253-AA; details: mean of both orientations
T13 chain: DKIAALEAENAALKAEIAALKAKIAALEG

4H570-AA = molecular target: T14, 4H570-AA; details: mean of both orientations
T14 chain: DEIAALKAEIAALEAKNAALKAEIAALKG

4H891-AA = molecular target: T15, 4H891-AA; details: mean of both orientations
T15 chain: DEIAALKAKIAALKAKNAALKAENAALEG

4H2438-AA = molecular target: T16, 4H2438-AA; details: mean of both orientations
T16 chain: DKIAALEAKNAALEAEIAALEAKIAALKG

4H2330-AA = molecular target: T17, 4H2330-AA
T17 chain: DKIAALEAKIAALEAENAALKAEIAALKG

4H2389-AA = molecular target: T18, 4H2389-AA; details: mean of both orientations
T18 chain: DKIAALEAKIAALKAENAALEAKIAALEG

4H3009-AA = molecular target: T19, 4H3009-AA; details: mean of both orientations
T19 chain: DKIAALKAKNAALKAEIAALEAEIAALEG

4H3120-AA = molecular target: T20, 4H3120-AA; details: mean of both orientations
T20 chain: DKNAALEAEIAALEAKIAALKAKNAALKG

4H1864-AA = molecular target: T21, 4H1864-AA; details: mean of both orientations
T21 chain: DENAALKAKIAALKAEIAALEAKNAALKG

4H458-AA = molecular target: T22, 4H458-AA; details: mean of both orientations
T22 chain: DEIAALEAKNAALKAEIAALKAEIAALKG

4H3410-AA = molecular target: T23, 4H3410-AA; details: mean of both orientations
T23 chain: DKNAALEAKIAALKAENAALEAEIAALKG

4H485-AA = molecular target: T24, 4H485-AA; details: mean of both orientations
T24 chain: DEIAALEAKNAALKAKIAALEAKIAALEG

4H710-AA = molecular target: T25, 4H710-AA; details: mean of both orientations
T25 chain: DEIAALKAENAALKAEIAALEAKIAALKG

4H850-AA = molecular target: T26, 4H850-AA; details: mean of both orientations
T26 chain: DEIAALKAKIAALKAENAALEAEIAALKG

4H2725-AA = molecular target: T27, 4H2725-AA
T27 chain: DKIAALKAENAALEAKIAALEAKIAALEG

4H2865-AA = molecular target: T28, 4H2865-AA; details: mean of both orientations
T28 chain: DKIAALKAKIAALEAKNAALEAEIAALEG

4H2649-AA = molecular target: T29, 4H2649-AA; details: mean of both orientations
T29 chain: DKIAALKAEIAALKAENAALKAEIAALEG

4H2473-AA = molecular target: T30, 4H2473-AA; details: mean of both orientations
T30 chain: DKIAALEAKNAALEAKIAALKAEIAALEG

4H797-AA = molecular target: T31, 4H797-AA; details: mean of both orientations
T31 chain: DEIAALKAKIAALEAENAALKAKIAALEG

4H1842-AA = molecular target: T32, 4H1842-AA
T32 chain: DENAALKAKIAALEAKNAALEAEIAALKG

4H3590-AA = molecular target: T33, 4H3590-AA; details: mean of both orientations
T33 chain: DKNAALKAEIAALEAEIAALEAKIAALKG

4H2109-AA = molecular target: T34, 4H2109-AA; details: mean of both orientations
T34 chain: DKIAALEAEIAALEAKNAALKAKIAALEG

4H3381-AA = molecular target: T35, 4H3381-AA; details: mean of both orientations
T35 chain: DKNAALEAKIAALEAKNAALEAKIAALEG

4H3753-AA = molecular target: T36, 4H3753-AA; details: mean of both orientations
T36 chain: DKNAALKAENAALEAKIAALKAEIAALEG

4H3697-AA = molecular target: T37, 4H3697-AA; details: mean of both orientations
T37 chain: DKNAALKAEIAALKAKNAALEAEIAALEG

4H94-AA = molecular target: T38, 4H94-AA; details: mean of both orientations
T38 chain: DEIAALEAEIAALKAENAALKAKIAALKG

4H3130-AA = molecular target: T39, 4H3130-AA; details: mean of both orientations
T39 chain: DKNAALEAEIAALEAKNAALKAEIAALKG

4H2274-AA = molecular target: T40, 4H2274-AA; details: mean of both orientations
T40 chain: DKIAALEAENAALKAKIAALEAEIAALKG

4H1877-AA = molecular target: T41, 4H1877-AA; details: mean of both orientations
T41 chain: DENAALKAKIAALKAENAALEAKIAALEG

P6-AA-1HGe-S = molecular target: T42, P6-AA-1HGe-S; details: mean of both orientations
T42 chain: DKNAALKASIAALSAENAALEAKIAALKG

O5-AA = molecular target: T43, O5-AA
T43 chain: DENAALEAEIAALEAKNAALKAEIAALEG

P6-AA-1HGe-R = molecular target: T44, P6-AA-1HGe-R; details: mean of both orientations
T44 chain: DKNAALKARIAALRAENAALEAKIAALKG

P6-AA-1HGe-T = molecular target: T45, P6-AA-1HGe-T; details: mean of both orientations
T45 chain: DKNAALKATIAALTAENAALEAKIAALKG

P6-AA-1HGe-D = molecular target: T46, P6-AA-1HGe-D; details: mean of both orientations
T46 chain: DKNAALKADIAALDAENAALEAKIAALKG

O6-AA = molecular target: T47, O6-AA; details: mean of both orientations
T47 chain: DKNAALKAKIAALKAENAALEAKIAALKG

P6-AA-1HGe-H = molecular target: T48, P6-AA-1HGe-H; details: mean of both orientations
T48 chain: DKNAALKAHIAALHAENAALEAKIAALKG

O8-AA = molecular target: T49, O8-AA; details: mean of both orientations
T49 chain: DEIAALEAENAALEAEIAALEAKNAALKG

P6-AA-1HGe-W = molecular target: T50, P6-AA-1HGe-W; details: mean of both orientations
T50 chain: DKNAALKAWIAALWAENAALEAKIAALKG

P6-AA-1HGe-Q = molecular target: T51, P6-AA-1HGe-Q; details: mean of both orientations
T51 chain: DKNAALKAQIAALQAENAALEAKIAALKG

O7-AA = molecular target: T52, O7-AA; details: mean of both orientations
T52 chain: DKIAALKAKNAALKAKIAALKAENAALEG

P6-AA-1HGe-A = molecular target: T53, P6-AA-1HGe-A; details: mean of both orientations
T53 chain: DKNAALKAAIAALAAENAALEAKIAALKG

P6-AA-1HGe-M = molecular target: T54, P6-AA-1HGe-M; details: mean of both orientations
T54 chain: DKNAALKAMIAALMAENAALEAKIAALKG

P9-AA = molecular target: T55, P9-AA; details: mean of both orientations
T55 chain: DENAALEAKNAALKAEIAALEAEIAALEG

P10-AA = molecular target: T56, P10-AA; details: mean of both orientations
T56 chain: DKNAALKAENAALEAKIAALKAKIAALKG

interaction score (4H2698-AA): -0.986
interaction score (4H536-AA): -1.7
interaction score (4H2162-AA): -1.21
interaction score (4H310-AA): 0.761
interaction score (4H629-AA): -1.59
interaction score (4H3016-AA): -1.43
interaction score (4H909-AA): -1.17
interaction score (4H3865-AA): -0.938
interaction score (4H930-AA): -1.21
interaction score (4H3395-AA): -2.04
interaction score (4H3165-AA): -1.43
interaction score (4H745-AA): -1.86
interaction score (4H2253-AA): -1.72
interaction score (4H570-AA): 0.585
interaction score (4H891-AA): -1.42
interaction score (4H2438-AA): -1.14
interaction score (4H2330-AA): -1.35
interaction score (4H2389-AA): -1.52
interaction score (4H3009-AA): -1.78
interaction score (4H3120-AA): -1.44
interaction score (4H1864-AA): -1.82
interaction score (4H458-AA): -1.14
interaction score (4H3410-AA): -0.8
interaction score (4H485-AA): -1.94
interaction score (4H710-AA): -1.63
interaction score (4H850-AA): 0.256
interaction score (4H2725-AA): -1.86
interaction score (4H2865-AA): -0.0645
interaction score (4H2649-AA): -1.27
interaction score (4H2473-AA): -1.44
interaction score (4H797-AA): -1.34
interaction score (4H1842-AA): 1.88
interaction score (4H3590-AA): -0.391
interaction score (4H2109-AA): -1.43
interaction score (4H3381-AA): -1.2
interaction score (4H3753-AA): -1.52
interaction score (4H3697-AA): -1.01
interaction score (4H94-AA): -1.17
interaction score (4H3130-AA): 0.65
interaction score (4H2274-AA): -1.6
interaction score (4H1877-AA): -1.15
B1: 4H1842-AA (peptide)
chain: DENAALKAKIAALEAKNAALEAEIAALKG

interaction score (P6-AA-1HGe-S): 2.12
interaction score (O5-AA): -1.71
interaction score (P6-AA-1HGe-R): 2.38
interaction score (P6-AA-1HGe-T): 2.21
interaction score (P6-AA-1HGe-D): 0.905
interaction score (O6-AA): 1.88
interaction score (P6-AA-1HGe-H): 2.44
interaction score (O8-AA): -0.935
interaction score (P6-AA-1HGe-W): 2.02
interaction score (P6-AA-1HGe-Q): 2.4
interaction score (O7-AA): -0.71
interaction score (P6-AA-1HGe-A): 2.15
interaction score (P6-AA-1HGe-M): 2.3
interaction score (P9-AA): -1.56
interaction score (P10-AA): 0.434
B2: O5-AA (peptide)
chain: DENAALEAEIAALEAKNAALKAEIAALEG
